The RNAGym collection of RNA variant scans (doi:10.1073/pnas.2313332121)

B1: TPR t1 (parent)
chain: GACCAAUCUGCCCUCAGAGCUCGAGAACAUCUUCGGAUGCAGAGGAGGCAGGCUUCGGUGGCGCGAUAGCGCCAACGUCCUCAACCUCCAAUGCAUCCCACCACAUGAUGAUGCCUGAAGAGCCUUGGUUUUUUG

Variants of: B1
Assay: polymerase ribozyme fitness, log enrichment relative to wild type (log ratio); higher = more active; in vitro selection for triplet polymerase activity
How it was run: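 Mutant libraries of each subunit of a heterodimeric triplet polymerase ribozyme were built by PCR and transcribed. Each library went through one round of in vitro selection in triplicate: annealing with biotinylated primer, partner subunit and triplets, frozen incubation at −7 °C, gel excision of extended constructs, streptavidin-bead capture and RT-PCR. Input and output libraries were Illumina-sequenced; only genotypes with ≥10 input reads and ≥1 read per output were kept. Fitness is log2(genotype enrichment/wild-type enrichment), using inverse-variance-weighted replicate averages.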

Point of comparison: GACCAAUCUGCCCUCAGAGCUCGAGAACAUCUUCGGAUGCAGAGGAGGCAGGCUUCGGUGGCACGAUAGCGCCAACGUCCUCAACCUCCAAUGCAUCCCACCACAUGAUGAUGCCUGAAGAGCCUUGGGUUUUUG, “polymerase ribozyme fitness (log ratio)” value -0.825. Against it:
- GACCAAUCUGCCCUCAGAGCUCGAGAACAUCUUAGGAUGCAGAGGAGGCAGGCUUCGGUGGCGCGAUAGCGGCAACGUCCUCAACCUCCAAUGCAUCCCACCACAUUAGGAUGCCUGAAGGGCCUUGGUUUUUUG — lower, -5.86
- GACCAAUCUGCCCUCAGAGCUCGAGAUCAUCUUCGGAUGCAGAGGAGGCAGGCUUCGGUGGCGCGAUAGCGCCAACGUCCUCAACCUCCAAUGCAUCCCACCACUUGAUGAUGCCUGAAGAGCCUUGGUUUUUUG — lower, -4.58
- GACCAAUCUGCCCUCAGAGCUCGAGAACAUCUUCGGAUGCAGAGGAGGCAGGCUUCGGUGGCGCGAUAGCGCCAACGUCCUCAACCUCCAAUGCAUCCCACCACAUGAUGAUGCCUCAAGUGCCUUGGUUUUUUG — lower, -3
- GACCAAUCUGCCCUCAGAGCUCGAGAACAUCUUCGGAUGCAGAGGCGGCAGGCUUCGGUGGCGCGAUAGCGCCAACGUCCUCAACCUCCAAUGCAUCCCACCACAUGAUGAUGCCUGAAGAGCCUUGGUUUUUUG — within 0.2 log units, -0.983
- GACCAAUCUGCCCUCAGAGCUCGAGAACAUCUUCGUAUGCAGAGCAGGCAGGCUUCGGUGGCGCGAUAGCGCCAACGUCCUCAACCUCUAAUGCAUCCCACCACAUGAUGAUGCCUGAAGAGCCUUGGUUUAUUG — lower, -2.62
- GACCAAUCUGCCCUCAGAGCUCGAGAACAUCUUCGGAUGCAGAGGAGGCAGGCUUCGGUGGCGUGAUAGCGCCAACGCCCUCAACCUCCAAUGCAUCCCACCACAUGAUGAUGCCUGAAGAGCCUUGGUUUUUUG — higher, -0.191
- GACCAAUCUGCCCUCAGAGCUCGAGAACAUCUUCGGAGGCAAAGGAGGCAGGCUUCGGUGGCGCGAUAGCGCCAACGUUCUCAACCUCCAAUGCAUCCCACCACAUGAUGAUGCCUGAAGAGCCUUGGUUUUUUG — lower, -2.56
- GCCCAAUCUGCCCUCAGAGCUCGAGAACAUCUUCGGAUGCAGAGGCGGCAGGCUACGGUGGCGGGAUAGCGCCAACGUCCUCAUCCUCCAAUGCAUCCCACCACAUGAUGAUGCCUGAAGAGCCUUGGUUUUUUG — lower, -7.2
- GACCAAUCUGCCCUCAGAGCUCGAGAACUUCUUCGGAUGCAGAGGAGGCAGGCUUCGGUGGCGCGAUAGCGCCAACGUCCUCAACCUCCAAGGCAUCCCACCACAUGAAGAUGCUUGAAGAGCCUUGGUAUUUUG — lower, -5.3
- GACCAAUCUGCCCUCAGAGCUCGAGAAUAUCUUCGGAUGCAGAGGAGGCAGGCUUCGGUGGCGCGAUAGCGCCAACGUCCUCAACCUCCAAUGCAUCCCACCACAUGAUGAUGCCUGAAGAGCCUUGGUUUUGUG — lower, -1.83
- GACCAAUCUACCCUCAGAGCUCGAGAACAUCUUCGGAUGCAGAGGAGGCAUGCUUGGGUGGCGCGAUAGCGCCAACGUCCUCAACCUCCAAUGCAUCCCACCACAUGAUGAUGCCUGAAGAGCCUUGGUUUUUUG — lower, -5.12
- GACAAAUCUGCCCUCAGAGCUCGAGAACAUCUUCGGAUGCAGAGGAGGCAGGCUUCGGUGGAGCGAUAGCGCCAACGUCCUCAACCUCCAAAGCAUCCCACCACAUGAUGAUGCCUGAAGAGCCUUGGAUUUUUG — lower, -5.8
- GACCAAUCUGCCCUCAGAGCUCGAGAACAUCUUCGGAUGCAGAGGAGGCAGGCUUCGGUGGCGCGAUAGCGCCAACGUCCUCAACCUCCAAUGGAUCCCUCCACAUGAUGAUGCCUGAAAAGCCUUGGUUUUUUG — within 0.2 log units, -0.669
- GACCAAUCUGCCCUCAGAGCUCCAGACCAUCUUCGGAUGCAGAGGAGGCAGGUCUCGGUGGAGCGAUAGCGCCAACGUCCUCAACCUGCAAUGCAUCCUACCACAUGAUGAUGCCUGAAGAGCUUUGGUAGUUUG — lower, -7.2
- GACCAAUCUGCCCUCAGAGCUCGAGAACAUCUUCGGAUGCAGAGGAGUCAGGCUUCGGUGGCGCGAUAGCGCUAACGUCCUCAACCUCCAAUGCAUCCCACCACAUGAAUAUGCCUGAUGAGCCUUGGUUUUUUG — lower, -4.88
- GUCCAAUCUGCCCUCAGAGCUCGAGAACAUCUUCGGCUGCAGAGGAGGCAGGCUUCGGUGGCGCGAUAGCGCCAACGUCCUCAACCUCCAAUGCAUCCCACCACAUGAUGAUGCCUGAAGAGCCUUGGUUUUUUG — lower, -3.02
- GACCAAUCUGAACGCAGCGCUCGAGAACAUCUUCGGAUGCAGAGGAGGCAGGCUUCGGUGGCCCGAUAGCGCCAACGUCCUCAAUCUCCAAUGCAUCCCACCGCAAACUGAUGUCUCAAGAGCCUUGGUUUUUUG — lower, -6.98
- GACCAAUCUGCCCUCAGAGCUCGAGAACAUCUUCGGAUGCAGAGGAUGCAGGCUUCGGUGGCGCGAUAGCGCCAACGUCCUCAACCUCCAAUGCAUCCCACCACAUGAUGAUGCCUGAAGCGACUUGAUUUUUUG — lower, -2.3
- GACCAAUCUGCCCUCAGAGCUCGAGAACAUCAUCGGAUGCAGAGGAGUCAGGCUUCGAUGGCGCGAUAGCGCCAACGUCCUCAACCUCCAAUGCAUCCCACCACAUGAUGAUGCCUGAAGAGUCUUGGUUUUUUG — lower, -4.55
- GAGCAAUCUGCGCUCAGAGCUCGAGAACAUCUUCGGAUGCAGAGGAGGCAGGCUUCGGUGGCGCGAUAGCGCCAACGUCCUCCACCUCCAAUGCAUCCCACCACAAGAUGAUGCCUGAAGAGCCUUGGUUUUUUG — lower, -2.23
